Experimental data reported in US20060029946A1 (Scripps Research, published 2006).

Columns and labels:
[1] = target: T1, Cdc42-GTPγS (activated Cdc42) (UniProt P60953 1-191)
[2] = target: T1, Cdc42-GTPγS (activated Cdc42); assay: apparent equilibrium binding constant; fluorescence titration of a fixed concentration of labeled WASP fragment with cdc42-GTPγS
RhoA (activated GTPase) = RhoA (activated GTPase) (UniProt P61586 1-193); assay: fluorescence response of the I-SO WASP biosensor with activated GTPases
Sequence of RhoA (activated GTPase) (P61586 whole entry): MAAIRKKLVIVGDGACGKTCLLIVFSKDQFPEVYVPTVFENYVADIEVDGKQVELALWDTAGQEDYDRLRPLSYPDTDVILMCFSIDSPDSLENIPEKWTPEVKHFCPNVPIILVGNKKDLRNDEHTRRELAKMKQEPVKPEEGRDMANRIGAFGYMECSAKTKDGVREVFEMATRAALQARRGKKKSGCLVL

Rac (activated GTPase) = Rac (activated GTPase) (UniProt P63000 1-192); assay: as above

T1 sequence (P60953 whole entry, the tested form may be a part): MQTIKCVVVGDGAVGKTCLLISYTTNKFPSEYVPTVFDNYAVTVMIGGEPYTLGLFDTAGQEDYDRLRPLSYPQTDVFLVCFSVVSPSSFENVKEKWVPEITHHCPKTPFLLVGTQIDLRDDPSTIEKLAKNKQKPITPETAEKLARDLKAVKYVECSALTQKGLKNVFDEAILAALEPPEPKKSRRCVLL

| Binder | change in fluorescence intensity [1] [fold] | Kd [2] [nM] | increase in fluorescence intensity [1] [fold] | binding result (RhoA (activated GTPase)) | binding result (Rac (activated GTPase)) |
| --- | --- | --- | --- | --- | --- |
| Wiskott Aldrich Syndrome Protein (WASP) fragment, residues 201-320, F271C, labeled with S-SO dye 2e (other, also called labeled WASP fragment; WASP conjugate; not shown: C-terminal 6His fusion from pET23a) DIQNPDITSSRYRGLPAPGPSPADKKRSGKKKISKADIGAPSGFKHVSHVGWDPQNGFDVNNLDPDLRSLCSRAGISEAQLTDAETSKLIYDFIEDQGGLEAVRQEMRRQEPLPPPPPPS | 3 | 150 |  |  |  |
| WASP fragment F271C labeled with I-SO dye (other, also called I-SO-WASP biosensor; I-SO labeled WASP fragment; not shown: C-terminal 6His fusion from pET23a) DIQNPDITSSRYRGLPAPGPSPADKKRSGKKKISKADIGAPSGFKHVSHVGWDPQNGFDVNNLDPDLRSLCSRAGISEAQLTDAETSKLIYDFIEDQGGLEAVRQEMRRQEPLPPPPPPS |  |  | 2.8 | no binding | no binding |
